Molecular target: T1, mutant full-length huntingtin with 75 glutamines (HttQ75) (UniProt P42858 1-3142)
T1 construct: domain: full-length; In the yeast two-hybrid assay expressed as prey fusion from vector pJG4-5 (hemagglutinin tag); also called mutant huntingtin
Test: yeast two-hybrid, huntingtin prey against TAFII130 bait
Protocol: All the constructs were verified by DNA sequencing for correct reading frame and orientation. All assays were performed in triplicates and protein expression verified by Western blotting using standard procedures. The ability of the LexA fusion to bind operator was confirmed by a repression assay. The two-hybrid screen assays were performed as described (D. Krainc et al., J. Biol. Chem. 273:26218, 1998).
Because NH₂-terminal fragments of mutant huntingtin can effectively induce cell death in both in vivo and in vitro models (L. Mangiarini, et al., Cell 87:493, 1996; J. K. Copper, et al., Hum. Mol. Genet. 7:783, 1998; D. Martindale, et al., Nature Genet. 18:150, 1998; S. H. Li and X. Y. Li, Hum. Mol. Genet. 7:777, 1998), we examined the interactions of Sp1 and TAFII130 with the 480-amino acid NH₂-terminal fragment of huntingtin. […] FIG. 1 illustrates that Huntingtin interacted with Sp1 and TAFII130 in vitro and in human HD brain tissue. FIG. 1A illustrates results of yeast two-hybrid experiments, as described above herein, performed with full-length (HttQ17 and HttQ75) or truncated huntingtin constructs (Htt480Q17 and Htt480Q68) as prey against bait plasmids containing full-length Sp1 or Sp1 lacking the DNA binding domain (Sp1AB, amino acids 83 through 621).

T1 sequence (P42858 other isoform, or with tags, fused parts or gaps mutant limits assumed): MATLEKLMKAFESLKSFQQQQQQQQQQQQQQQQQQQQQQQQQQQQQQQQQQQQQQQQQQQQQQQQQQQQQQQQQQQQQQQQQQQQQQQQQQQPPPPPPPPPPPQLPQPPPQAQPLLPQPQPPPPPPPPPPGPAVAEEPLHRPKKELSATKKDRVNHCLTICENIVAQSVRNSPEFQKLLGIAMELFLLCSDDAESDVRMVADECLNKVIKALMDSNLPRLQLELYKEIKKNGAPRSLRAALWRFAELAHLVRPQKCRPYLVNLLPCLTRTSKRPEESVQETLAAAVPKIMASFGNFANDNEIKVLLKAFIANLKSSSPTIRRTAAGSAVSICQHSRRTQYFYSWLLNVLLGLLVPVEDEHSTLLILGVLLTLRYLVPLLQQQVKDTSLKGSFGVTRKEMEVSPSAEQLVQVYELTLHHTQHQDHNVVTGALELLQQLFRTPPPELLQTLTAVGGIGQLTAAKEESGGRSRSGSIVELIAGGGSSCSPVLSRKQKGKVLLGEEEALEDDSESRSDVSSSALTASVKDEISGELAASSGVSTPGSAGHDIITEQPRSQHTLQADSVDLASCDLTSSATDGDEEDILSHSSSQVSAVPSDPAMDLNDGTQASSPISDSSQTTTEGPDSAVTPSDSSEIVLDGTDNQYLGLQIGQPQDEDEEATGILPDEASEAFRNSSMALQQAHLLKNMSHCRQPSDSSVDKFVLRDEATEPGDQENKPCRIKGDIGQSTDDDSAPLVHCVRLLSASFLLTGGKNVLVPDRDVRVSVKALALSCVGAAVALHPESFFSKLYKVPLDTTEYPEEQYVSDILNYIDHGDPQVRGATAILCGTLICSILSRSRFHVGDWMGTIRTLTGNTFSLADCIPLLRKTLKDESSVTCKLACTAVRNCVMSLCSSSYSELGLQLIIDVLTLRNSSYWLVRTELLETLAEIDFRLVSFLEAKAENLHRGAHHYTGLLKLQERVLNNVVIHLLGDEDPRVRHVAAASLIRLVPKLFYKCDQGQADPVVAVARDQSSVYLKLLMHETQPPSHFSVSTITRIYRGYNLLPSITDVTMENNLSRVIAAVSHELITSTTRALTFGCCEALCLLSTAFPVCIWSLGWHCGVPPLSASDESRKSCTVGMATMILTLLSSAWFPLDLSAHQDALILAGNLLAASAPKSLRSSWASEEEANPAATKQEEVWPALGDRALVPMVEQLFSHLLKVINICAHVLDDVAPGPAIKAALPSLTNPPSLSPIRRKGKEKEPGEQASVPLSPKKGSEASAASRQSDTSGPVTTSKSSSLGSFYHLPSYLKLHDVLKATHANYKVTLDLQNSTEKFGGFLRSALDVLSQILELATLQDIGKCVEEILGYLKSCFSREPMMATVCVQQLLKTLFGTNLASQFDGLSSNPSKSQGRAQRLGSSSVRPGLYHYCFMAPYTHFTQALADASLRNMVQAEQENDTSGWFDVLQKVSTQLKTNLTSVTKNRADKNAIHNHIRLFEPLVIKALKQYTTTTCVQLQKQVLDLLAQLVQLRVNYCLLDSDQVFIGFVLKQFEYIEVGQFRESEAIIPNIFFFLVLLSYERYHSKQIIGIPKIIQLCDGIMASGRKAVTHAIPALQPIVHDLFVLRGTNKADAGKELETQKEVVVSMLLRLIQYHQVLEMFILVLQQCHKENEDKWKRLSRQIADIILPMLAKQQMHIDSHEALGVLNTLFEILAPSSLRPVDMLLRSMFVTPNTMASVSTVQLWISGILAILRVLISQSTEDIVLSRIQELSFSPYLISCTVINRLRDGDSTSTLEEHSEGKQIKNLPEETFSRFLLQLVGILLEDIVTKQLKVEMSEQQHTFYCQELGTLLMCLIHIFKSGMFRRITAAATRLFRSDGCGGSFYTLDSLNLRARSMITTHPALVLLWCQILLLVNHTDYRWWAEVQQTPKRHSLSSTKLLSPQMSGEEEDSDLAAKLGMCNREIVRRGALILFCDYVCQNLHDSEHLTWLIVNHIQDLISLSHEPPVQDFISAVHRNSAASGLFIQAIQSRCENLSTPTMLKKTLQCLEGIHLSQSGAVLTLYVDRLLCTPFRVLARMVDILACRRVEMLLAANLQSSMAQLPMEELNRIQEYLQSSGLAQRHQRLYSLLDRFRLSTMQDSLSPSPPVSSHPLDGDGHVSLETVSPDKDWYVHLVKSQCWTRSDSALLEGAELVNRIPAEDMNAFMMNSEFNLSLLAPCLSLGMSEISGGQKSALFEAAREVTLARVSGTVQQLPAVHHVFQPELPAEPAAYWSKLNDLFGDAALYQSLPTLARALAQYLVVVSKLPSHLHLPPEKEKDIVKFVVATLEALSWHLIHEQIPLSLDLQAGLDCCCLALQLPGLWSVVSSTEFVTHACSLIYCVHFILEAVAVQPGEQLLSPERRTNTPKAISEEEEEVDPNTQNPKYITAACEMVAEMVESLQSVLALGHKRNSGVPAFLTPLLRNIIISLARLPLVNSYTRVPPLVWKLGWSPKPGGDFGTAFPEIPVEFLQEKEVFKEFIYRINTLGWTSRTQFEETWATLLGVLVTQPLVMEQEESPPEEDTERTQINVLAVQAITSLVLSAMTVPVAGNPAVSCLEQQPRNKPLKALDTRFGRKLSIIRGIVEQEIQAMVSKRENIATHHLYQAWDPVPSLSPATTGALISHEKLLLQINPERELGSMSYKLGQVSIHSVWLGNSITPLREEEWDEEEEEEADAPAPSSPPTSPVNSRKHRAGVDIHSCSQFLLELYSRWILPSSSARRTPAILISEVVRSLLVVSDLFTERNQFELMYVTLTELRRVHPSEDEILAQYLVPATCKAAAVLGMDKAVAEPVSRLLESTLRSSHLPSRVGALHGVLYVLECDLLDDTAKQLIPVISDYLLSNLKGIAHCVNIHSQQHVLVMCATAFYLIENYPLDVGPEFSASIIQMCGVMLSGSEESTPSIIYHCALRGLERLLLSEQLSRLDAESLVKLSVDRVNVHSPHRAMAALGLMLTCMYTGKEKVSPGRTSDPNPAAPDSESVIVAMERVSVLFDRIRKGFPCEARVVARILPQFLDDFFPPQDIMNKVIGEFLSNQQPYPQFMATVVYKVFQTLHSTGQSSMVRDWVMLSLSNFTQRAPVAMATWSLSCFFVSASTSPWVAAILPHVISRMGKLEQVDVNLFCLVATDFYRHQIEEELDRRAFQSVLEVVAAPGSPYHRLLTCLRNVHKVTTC

B1: TAFII130 (coactivator), full length (other, UniProt O00268 139-1085, looked up)
chain: PVPAAAAVAAGPEPAPAGPAKPAGPAALAARAGPGPGPGPGPGPGPGPGKPAGPGAAQTLNGSAALLNSHHAAAPAVSLVNNGPAALLPLPKPAAPGTVIQTPPFVGAAAPPAPAAPSPPAAPAPAAPAAAPPPPPPAPATLARPPGHPAGPPTAAPAVPPPAAAQNGGSAGAAPAPAPAAGGPAGVSGQPGPGAAAAAPAPGVKAESPKRVVQAAPPAAQTLAASGPASTAASMVIGPTMQGALPSPAAVPPPAPGTPTGLPKGAAGAVTQSLSRTPTATTSGIRATLTPTVLAPRLPQPPQNPTNIQNFQLPPGMVLVRSENGQLLMIPQQALAQMQAQAHAQPQTTMAPRPATPTSAPPVQISTVQAPGTPIIARQVTPTTIIKQVSQAQTTVQPSATLQRSPGVQPQLVLGGAAQTASLGTATAVQTGTPQRTVPGATTTSSAATETMENVKKCKNFLSTLIKLASSGKQSTETAANVKELVQNLLDGKIEAEDFTSRLYRELNSSPQPYLVPFLKRSLPALRQLTPDSAAFIQQSQQQPPPPTSQATTALTAVVLSSSVQRTAGKTAATVTSALQPPVLSLTQPTQVGVGKQGQPTPLVIQQPPKPGALIRPPQVTLTQTPMVALRQPHNRIMLTTPQQIQLNPLQPVPVVKPAVLPGTKALSAVSAQAAAAQKNKLKEPGGGSFRDDDDINDVASMAGVNLSEESARILATNSELVGTLTRSCKDETFLLQAPLQRRILEIGKKHGITELHPDVVSYVSHATQQRLQNLVEKISETAQQKNFSYKDDDRYEQASDVRAQLKFFEQLDQIEKQRKDEQEREILMRAAKSRSRQEDPEQLRLKQKAKEMQQQELAQMRQRDANLTALAAIGPRKKRKVDCPGPGSGAEGSGPGSVVPGSSGVGTPRQFTRQRITRVNLRDLIFCLENERETSHSLLLYKAFLK
notes: domain: full-length; in striatal neurons overexpressed
B1: binds.

Source: patent US20040213780A1 (GENERAL HOSPITAL, published 2004)
